# According to the Immune Epitope Database (IEDB):
# Tests used:
# Test in all cases: IEDB peptide-MHC binding, purified MHC/competitive/radioactivity; ≥ and ≤ were set here for values at or beyond the usual limits of such assays
# Settings in all cases: source organism: Homo sapiens
# [1] = molecular target: HLA-A*03:01
# [2] = molecular target: HLA-A*11:01
# [3] = molecular target: HLA-B*07:02
Sequence,IC50 [1],IC50 [2],IC50 [3]
YMVPFIPLYR,26.3 nM,38.5 nM,
HTMEVTVYHR,179 nM,,
SSSHWLRLPR,,45.5 nM,
LIGCWYCRRR,179 nM,,
VVLASLIYRR,161 nM,80.6 nM,
LPHSSSHWL,,,17.2 nM

# Further sequences by falling IC50 [2], results first:
IC50 [1],IC50 [2],IC50 [3],Sequence
,31.3 nM,,GTQCALTRR
,16.1 nM,,QTSAGHFPR
45.5 nM,4.6 nM,,SIFEQWLRR
17.9 nM,3.6 nM,,VVLASLIYR
,3.5 nM,,AVVLASLIYR
